Measurements as given in the supplement of paper PMC7877785.
± gives the uncertainty stated by the source.

Assay: self-splicing fitness, log relative to wild type (ln ratio); higher = more splicing; Tetrahymena group I intron in knt gene, E. coli kanamycin selection, DiMSum; sequences stand for … in CUCUCU…GGAGGGAAAAGUUAUCAGGCAUGCACCUGGUAGCUAGUCUUUAAACCAAUAGAUUGCAUCGGUUUAAAAGGCAAGACCGUCAAAUUGCGGGAAAGGGGUCAACAGCCGUUCAGUACCAAGUCUCAGGGGAAACUUUGAGAUGGCCUUGCAAAGGGUAUGGUAAUAAGCUGACGGACAUGGUCCUAACCACGCAGCCAAGUCCUAAGUCAACAGAUCUUCUGUUGAUAUGGAUGCAGUUCACAGACUAAAUGUCGGUCGGGGAAGAUGUAUUCUUCUCAUAAGAUAUAGUCGGACCUCUCCUUAAUGGGAGCUAGCGGAUGAAGUGAUGCAACACUGGAGCCGCUGGGAACUAAUUUGUAUGCGAAAGUAUAUUGAUUAGUUUUGGAGUACUCGUGGUCG
Outline: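 Six replicate transformations of E. coli BL21(DE3) with a pET-22b(+) library were grown overnight at 37°C or 30°C. The library randomised all eight P1ex-region intron nucleotides, the intron lying in the knt kanamycin-resistance gene, and plates were LB agar with or without 25 μg/mL kanamycin plus 100 μg/mL carbenicillin, 50 μM IPTG and 0.2% rhamnose. Pooled colonies were amplicon-sequenced on an Illumina HiSeq 2500, and fitness is the DiMSum error-weighted combination of wild-type-normalised replicate fold changes, kanamycin versus none.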

Sequence: GUAAAGCAAUAUUACGUGGG
- self-splicing fitness (ln) (30 °C): -3.28 ± 0.18
- self-splicing fitness (ln) (37 °C): -2.91 ± 0.14

Sequence: CCAAAGCAAUAUUACGAUGG
- self-splicing fitness (ln) (30 °C): -4.15 ± 0.22
- self-splicing fitness (ln) (37 °C): -2.29 ± 0.22

Sequence: ACAAAGCAAUAUUACGGCCA
- self-splicing fitness (ln) (30 °C): -1.13 ± 0.14
- self-splicing fitness (ln) (37 °C): -0.00489 ± 0.11

Sequence: UAUCAGCAAUAUUACGCGUA
- self-splicing fitness (ln) (30 °C): -0.493 ± 0.1
- self-splicing fitness (ln) (37 °C): 0.0959 ± 0.12

Sequence: ACUUAGCAAUAUUACGUUAU
- self-splicing fitness (ln) (30 °C): -3.66 ± 0.22
- self-splicing fitness (ln) (37 °C): -1.31 ± 0.16

Sequence: AUAAAGCAAUAUUACGCCGC
- self-splicing fitness (ln) (30 °C): -2.8 ± 0.18
- self-splicing fitness (ln) (37 °C): -2.05 ± 0.27

Sequence: CACAAGCAAUAUUACGGUAU
- self-splicing fitness (ln) (30 °C): -3.8 ± 0.14
- self-splicing fitness (ln) (37 °C): -2.35 ± 0.12

Sequence: UGACAGCAAUAUUACGGAUU
- self-splicing fitness (ln) (30 °C): -2.54 ± 0.094
- self-splicing fitness (ln) (37 °C): -2.29 ± 0.13

Sequence: UGAGAGCAAUAUUACGAGCU
- self-splicing fitness (ln) (37 °C): -2.53 ± 0.49

Sequence: GAGUAGCAAUAUUACGUACG
- self-splicing fitness (ln) (30 °C): -2.67 ± 0.18
- self-splicing fitness (ln) (37 °C): 0.056 ± 0.13

Sequence: CACCAGCAAUAUUACGUGCA
- self-splicing fitness (ln) (30 °C): -4.11 ± 0.17
- self-splicing fitness (ln) (37 °C): -2.56 ± 0.15

Sequence: UGACAGCAAUAUUACGUUAA
- self-splicing fitness (ln) (30 °C): -0.645 ± 0.1
- self-splicing fitness (ln) (37 °C): -1.16 ± 0.09

Sequence: GACGAGCAAUAUUACGCGUG
- self-splicing fitness (ln) (30 °C): -3.11 ± 0.29
- self-splicing fitness (ln) (37 °C): -1.77 ± 0.21

Sequence: UAGUAGCAAUAUUACGCCGA
- self-splicing fitness (ln) (30 °C): -1.81 ± 0.23
- self-splicing fitness (ln) (37 °C): -0.922 ± 0.2

Sequence: UCAAAGCAAUAUUACGCUUA
- self-splicing fitness (ln) (30 °C): -2.87 ± 0.14
- self-splicing fitness (ln) (37 °C): -2.53 ± 0.17

Sequence: GAUAAGCAAUAUUACGUGAU
- self-splicing fitness (ln) (30 °C): -2.21 ± 0.12
- self-splicing fitness (ln) (37 °C): -0.957 ± 0.12

Sequence: GGACAGCAAUAUUACGGGCC
- self-splicing fitness (ln) (37 °C): -1.52 ± 0.29

Sequence: AAGGAGCAAUAUUACGAGCG
- self-splicing fitness (ln) (30 °C): -2.53 ± 0.2
- self-splicing fitness (ln) (37 °C): -2.19 ± 0.49

Sequence: ACUUAGCAAUAUUACGCUUC
- self-splicing fitness (ln) (30 °C): -2.32 ± 0.19
- self-splicing fitness (ln) (37 °C): -2.18 ± 0.45

Sequence: ACCGAGCAAUAUUACGGGGC
- self-splicing fitness (ln) (30 °C): -3.64 ± 0.2
- self-splicing fitness (ln) (37 °C): -2.47 ± 0.2

Sequence: UGUGAGCAAUAUUACGCUAC
- self-splicing fitness (ln) (30 °C): -3 ± 0.32

Sequence: UGACAGCAAUAUUACGUCAC
- self-splicing fitness (ln) (30 °C): -3.74 ± 0.17
- self-splicing fitness (ln) (37 °C): -3.16 ± 0.23

Sequence: UCCUAGCAAUAUUACGUCAG
- self-splicing fitness (ln) (30 °C): -3.38 ± 0.29
- self-splicing fitness (ln) (37 °C): -2.41 ± 0.37

Sequence: CCGAAGCAAUAUUACGCAUU
- self-splicing fitness (ln) (30 °C): -3.01 ± 0.2
- self-splicing fitness (ln) (37 °C): -3.77 ± 0.29

Sequence: UUUGAGCAAUAUUACGCUCA
- self-splicing fitness (ln) (30 °C): -3.33 ± 0.41
- self-splicing fitness (ln) (37 °C): -1.6 ± 0.41

Sequence: UGACAGCAAUAUUACGUGUU
- self-splicing fitness (ln) (30 °C): -4.32 ± 0.19
- self-splicing fitness (ln) (37 °C): -2.22 ± 0.19

Sequence: CAGGAGCAAUAUUACGCGAG
- self-splicing fitness (ln) (30 °C): -2.59 ± 0.23
- self-splicing fitness (ln) (37 °C): -1.59 ± 0.16

Sequence: GUGUAGCAAUAUUACGGACG
- self-splicing fitness (ln) (30 °C): -0.958 ± 0.14
- self-splicing fitness (ln) (37 °C): -1.32 ± 0.17

Sequence: GCUGAGCAAUAUUACGGGUG
- self-splicing fitness (ln) (30 °C): -1.72 ± 0.087
- self-splicing fitness (ln) (37 °C): -1.29 ± 0.11

Sequence: GAGCAGCAAUAUUACGCCAA
- self-splicing fitness (ln) (30 °C): -1.55 ± 0.29
- self-splicing fitness (ln) (37 °C): -1.43 ± 0.31

Sequence: UGGUAGCAAUAUUACGUAAG
- self-splicing fitness (ln) (30 °C): -1.53 ± 0.11
- self-splicing fitness (ln) (37 °C): -0.776 ± 0.16

Sequence: GCAGAGCAAUAUUACGGUUU
- self-splicing fitness (ln) (30 °C): -2.82 ± 0.17
- self-splicing fitness (ln) (37 °C): -2.08 ± 0.15

Sequence: AGUGAGCAAUAUUACGCGUA
- self-splicing fitness (ln) (30 °C): -1.97 ± 0.27
- self-splicing fitness (ln) (37 °C): -1.48 ± 0.17

Sequence: UUUAAGCAAUAUUACGGCUC
- self-splicing fitness (ln) (30 °C): -1.82 ± 0.17
- self-splicing fitness (ln) (37 °C): -0.633 ± 0.2

Sequence: CUAAAGCAAUAUUACGGAGU
- self-splicing fitness (ln) (30 °C): -4.03 ± 0.15
- self-splicing fitness (ln) (37 °C): -3.19 ± 0.23

Sequence: CGGGAGCAAUAUUACGACUU
- self-splicing fitness (ln) (30 °C): -1.58 ± 0.37
- self-splicing fitness (ln) (37 °C): -1.83 ± 0.49

Sequence: GCUCAGCAAUAUUACGCUAU
- self-splicing fitness (ln) (30 °C): -1.61 ± 0.11
- self-splicing fitness (ln) (37 °C): -0.658 ± 0.097

Sequence: AAAUAGCAAUAUUACGAUUC
- self-splicing fitness (ln) (30 °C): -0.544 ± 0.066
- self-splicing fitness (ln) (37 °C): -0.733 ± 0.1

Sequence: AUGCAGCAAUAUUACGAUGC
- self-splicing fitness (ln) (30 °C): -2.06 ± 0.14
- self-splicing fitness (ln) (37 °C): -0.432 ± 0.14

Sequence: CCAUAGCAAUAUUACGAGGA
- self-splicing fitness (ln) (30 °C): -2.97 ± 0.25
- self-splicing fitness (ln) (37 °C): -2.05 ± 0.25

Sequence: GCAUAGCAAUAUUACGAUCG
- self-splicing fitness (ln) (30 °C): -1.04 ± 0.11
- self-splicing fitness (ln) (37 °C): -0.34 ± 0.12

Sequence: CCCGAGCAAUAUUACGGAUC
- self-splicing fitness (ln) (30 °C): -3.92 ± 0.46
- self-splicing fitness (ln) (37 °C): -2.06 ± 0.27

Sequence: GGUUAGCAAUAUUACGAUAC
- self-splicing fitness (ln) (30 °C): -0.314 ± 0.22
- self-splicing fitness (ln) (37 °C): -0.0363 ± 0.19

Sequence: UGCUAGCAAUAUUACGUUGG
- self-splicing fitness (ln) (30 °C): -3.3 ± 0.19
- self-splicing fitness (ln) (37 °C): -2.49 ± 0.2

Sequence: AGGCAGCAAUAUUACGAAUC
- self-splicing fitness (ln) (30 °C): -2.29 ± 0.29
- self-splicing fitness (ln) (37 °C): -2.07 ± 0.24

Sequence: CGUAAGCAAUAUUACGUACC
- self-splicing fitness (ln) (30 °C): -1.94 ± 0.21
- self-splicing fitness (ln) (37 °C): -1.76 ± 0.24

Sequence: UAUGAGCAAUAUUACGCCCG
- self-splicing fitness (ln) (30 °C): -2.23 ± 0.3
- self-splicing fitness (ln) (37 °C): 0.00889 ± 0.21

Sequence: GCUAAGCAAUAUUACGGCAG
- self-splicing fitness (ln) (30 °C): -3.28 ± 0.34
- self-splicing fitness (ln) (37 °C): -2.85 ± 0.34

Sequence: AGUCAGCAAUAUUACGGGGC
- self-splicing fitness (ln) (37 °C): -2.31 ± 0.45
